Source: the supplement of paper PMC10567573

B1: RSPH3 (parent)
chain: KAASLARNLAKRRRTYLGGAAGRS
B2: SLC22A15 (parent)
chain: IAQYALLGYFIRSWRTLAILVNLQ

Variants of: B1
Assay: protein stability index of a GFP-peptide fusion (GPS, HEK-293T) (PSI 1-6); higher = more stable
Conditions: c terminus: a fixed tail appended
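Also: lentivirally expressed fusions sorted by FACS into six bins by GFP to DsRed ratio, PSI derived from sequencing read proportions per bin multiplied by bin number.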

Variant	protein stability index
KAASLARNLAKRRRTYLGGAAFRS	2.17
KAASLARNLAKRRRTYLGGAAHRS	1.44
KAASLARNLAKRRRTYLGGAAKRS	2.05
KAASLARNLAKRRRTYLGGAALRS	2.42
KAASLARNLAKRRRTYLGGAANRS	3.29
KAASLARNLAKRRRTYLGGAAWRS	1.44
KAASLARNLAKRRRTYLGGAAYRS	2
KAASLARNLAKRRRTYLGGAAGCS	1.99
KAASLARNLAKRRRTYLGGAAGDS	2.61
KAASLARNLAKRRRTYLGGAAGFS	1.63
KAASLARNLAKRRRTYLGGAAGGS	1.85
KAASLARNLAKRRRTYLGGAAGHS	2.37
KAASLARNLAKRRRTYLGGAAGIS	1.59
KAASLARNLAKRRRTYLGGAAGKS	2.14
KAASLARNLAKRRRTYLGGAAGLS	1.83
KAASLARNLAKRRRTYLGGAAGMS	2
KAASLARNLAKRRRTYLGGAAGPS	2.83

Variant	protein stability index
KAASLARNLAKRRRTYLGGAAGQS	1.23
KAASLARNLAKRRRTYLGGAAGVS	2.15
KAASLARNLAKRRRTYLGGAAGWS	1.61
KAASLARNLAKRRRTYLGGAAGRA	2.7
KAASLARNLAKRRRTYLGGAAGRC	2.11
KAASLARNLAKRRRTYLGGAAGRD	3.31
KAASLARNLAKRRRTYLGGAAGRE	2.01
KAASLARNLAKRRRTYLGGAAGRF	1.94
KAASLARNLAKRRRTYLGGAAGRH	2.41
KAASLARNLAKRRRTYLGGAAGRI	3.4
KAASLARNLAKRRRTYLGGAAGRK	2
KAASLARNLAKRRRTYLGGAAGRL	2.04
KAASLARNLAKRRRTYLGGAAGRM	2.2
KAASLARNLAKRRRTYLGGAAGRN	1.85
KAASLARNLAKRRRTYLGGAAGRP	1.83
KAASLARNLAKRRRTYLGGAAGRQ	3.37
KAASLARNLAKRRRTYLGGAAGRR	2.32

Variants of: B2
Assay: as above
Conditions: c terminus: a fixed tail appended

Variant	protein stability index
DAQYALLGYFIRSWRTLAILVNLQ	2.92
NAQYALLGYFIRSWRTLAILVNLQ	4.39
PAQYALLGYFIRSWRTLAILVNLQ	1.52
VAQYALLGYFIRSWRTLAILVNLQ	2.17
IEQYALLGYFIRSWRTLAILVNLQ	2.65
IFQYALLGYFIRSWRTLAILVNLQ	1.95
IGQYALLGYFIRSWRTLAILVNLQ	2.41
IHQYALLGYFIRSWRTLAILVNLQ	2.48
IIQYALLGYFIRSWRTLAILVNLQ	3.22
IKQYALLGYFIRSWRTLAILVNLQ	2.18
IMQYALLGYFIRSWRTLAILVNLQ	3.88
INQYALLGYFIRSWRTLAILVNLQ	4.69
IPQYALLGYFIRSWRTLAILVNLQ	4.19
IRQYALLGYFIRSWRTLAILVNLQ	3.65
ISQYALLGYFIRSWRTLAILVNLQ	2.1
ITQYALLGYFIRSWRTLAILVNLQ	3.18
IVQYALLGYFIRSWRTLAILVNLQ	2.88
IAAYALLGYFIRSWRTLAILVNLQ	3.14
IACYALLGYFIRSWRTLAILVNLQ	3.46
IADYALLGYFIRSWRTLAILVNLQ	2.29

Variant	protein stability index
IAGYALLGYFIRSWRTLAILVNLQ	3.38
IAHYALLGYFIRSWRTLAILVNLQ	2.13
IAKYALLGYFIRSWRTLAILVNLQ	1.96
IALYALLGYFIRSWRTLAILVNLQ	3.15
IARYALLGYFIRSWRTLAILVNLQ	4.63
IAVYALLGYFIRSWRTLAILVNLQ	4.91
IAQAALLGYFIRSWRTLAILVNLQ	3
IAQCALLGYFIRSWRTLAILVNLQ	3.29
IAQEALLGYFIRSWRTLAILVNLQ	3.39
IAQFALLGYFIRSWRTLAILVNLQ	3.81
IAQIALLGYFIRSWRTLAILVNLQ	1.57
IAQNALLGYFIRSWRTLAILVNLQ	4.26
IAQPALLGYFIRSWRTLAILVNLQ	4.01
IAQQALLGYFIRSWRTLAILVNLQ	2.44
IAQWALLGYFIRSWRTLAILVNLQ	2.78
IAQYELLGYFIRSWRTLAILVNLQ	1.82
IAQYGLLGYFIRSWRTLAILVNLQ	3.8
IAQYILLGYFIRSWRTLAILVNLQ	2.52
IAQYKLLGYFIRSWRTLAILVNLQ	2.1
IAQYRLLGYFIRSWRTLAILVNLQ	2.33

Variant	protein stability index
IAQYSLLGYFIRSWRTLAILVNLQ	2.48
IAQYAELGYFIRSWRTLAILVNLQ	2.55
IAQYAFLGYFIRSWRTLAILVNLQ	2.34
IAQYAGLGYFIRSWRTLAILVNLQ	4.36
IAQYAHLGYFIRSWRTLAILVNLQ	1.67
IAQYAILGYFIRSWRTLAILVNLQ	3.23
IAQYAKLGYFIRSWRTLAILVNLQ	2.31
IAQYAMLGYFIRSWRTLAILVNLQ	3.42
IAQYANLGYFIRSWRTLAILVNLQ	2.26
IAQYAPLGYFIRSWRTLAILVNLQ	2.95
IAQYAQLGYFIRSWRTLAILVNLQ	2.46
IAQYARLGYFIRSWRTLAILVNLQ	4.15
IAQYASLGYFIRSWRTLAILVNLQ	2.22
IAQYATLGYFIRSWRTLAILVNLQ	4.1
IAQYAYLGYFIRSWRTLAILVNLQ	2.49
IAQYALCGYFIRSWRTLAILVNLQ	3.99
IAQYALDGYFIRSWRTLAILVNLQ	2.67
IAQYALIGYFIRSWRTLAILVNLQ	1.71
IAQYALMGYFIRSWRTLAILVNLQ	2.97
IAQYALNGYFIRSWRTLAILVNLQ	3.3
